Experimental data reported in US20250243261A1 (CZ BIOHUB SF, published 2025).

B1: mAb114 UCA VH T41P IgG (antibody, V domains shown)
VH: EVQLVESGGGLVQPGGSLRLSCAASGFTFSSYDMHWVRQAPGKGLEWVSAIGTAGDTYYPGSVKGRFTISRENAKNSLYLQMNSLRAGDTAVYYCVRSDRGVAGLFDSWGQGTLVTVSS
VL: DIQMTQSPSSLSASVGDRVTITCRASQGISNYLAWYQQKPGKVPKLLIYAASTLQSGVPSRFSGSGSGTDFTLTISSLQPEDVATYYCQKYNSAPLTFGGGTKVEIK
B2: mAb114 UCA VH A54G IgG (antibody, V domains shown)
VH: EVQLVESGGGLVQPGGSLRLSCAASGFTFSSYDMHWVRQATGKGLEWVSAIGTGGDTYYPGSVKGRFTISRENAKNSLYLQMNSLRAGDTAVYYCVRSDRGVAGLFDSWGQGTLVTVSS
VL: DIQMTQSPSSLSASVGDRVTITCRASQGISNYLAWYQQKPGKVPKLLIYAASTLQSGVPSRFSGSGSGTDFTLTISSLQPEDVATYYCQKYNSAPLTFGGGTKVEIK
B3: mAb114 UCA VH P60A IgG (antibody, V domains shown)
VH: EVQLVESGGGLVQPGGSLRLSCAASGFTFSSYDMHWVRQATGKGLEWVSAIGTAGDTYYAGSVKGRFTISRENAKNSLYLQMNSLRAGDTAVYYCVRSDRGVAGLFDSWGQGTLVTVSS
VL: DIQMTQSPSSLSASVGDRVTITCRASQGISNYLAWYQQKPGKVPKLLIYAASTLQSGVPSRFSGSGSGTDFTLTISSLQPEDVATYYCQKYNSAPLTFGGGTKVEIK
B4: mAb114 UCA VH G61D IgG (antibody, V domains shown)
VH: EVQLVESGGGLVQPGGSLRLSCAASGFTFSSYDMHWVRQATGKGLEWVSAIGTAGDTYYPDSVKGRFTISRENAKNSLYLQMNSLRAGDTAVYYCVRSDRGVAGLFDSWGQGTLVTVSS
VL: DIQMTQSPSSLSASVGDRVTITCRASQGISNYLAWYQQKPGKVPKLLIYAASTLQSGVPSRFSGSGSGTDFTLTISSLQPEDVATYYCQKYNSAPLTFGGGTKVEIK
B5: mAb114 VH M31S Fab (Fab, V domains shown)
VH: EVQLVESGGGLIQPGGSLRLSCAASGFALRSYDMHWVRQTIDKRLEWVSAVGPSGDTYYADSVKGRFAVSRENAKNSLSLQMNSLTAGDTAIYYCVRSDRGVAGLFDSWGQGILVTVSS
VL: DIQMTQSPSSLSASVGDRITITCRASQAFDNYVAWYQQRPGKVPKLLISAASALHAGVPSRFSGSGSGTHFTLTISSLQPEDVATYYCQNYNSAPLTFGGGTKVEIK
B6: mAb114 VL N90Q Fab (Fab, V domains shown)
VH: EVQLVESGGGLIQPGGSLRLSCAASGFALRMYDMHWVRQTIDKRLEWVSAVGPSGDTYYADSVKGRFAVSRENAKNSLSLQMNSLTAGDTAIYYCVRSDRGVAGLFDSWGQGILVTVSS
VL: DIQMTQSPSSLSASVGDRITITCRASQAFDNYVAWYQQRPGKVPKLLISAASALHAGVPSRFSGSGSGTHFTLTISSLQPEDVATYYCQQYNSAPLTFGGGTKVEIK
B7: mAb114 VH I41P-D42G-A68T-S79Y-I113T / VL V43A Fab (Fab, V domains shown)
VH: EVQLVESGGGLIQPGGSLRLSCAASGFALRMYDMHWVRQTPGKRLEWVSAVGPSGDTYYADSVKGRFTVSRENAKNSLYLQMNSLTAGDTAIYYCVRSDRGVAGLFDSWGQGTLVTVSS
VL: DIQMTQSPSSLSASVGDRITITCRASQAFDNYVAWYQQRPGKAPKLLISAASALHAGVPSRFSGSGSGTHFTLTISSLQPEDVATYYCQNYNSAPLTFGGGTKVEIK
B8: mAb114 VH D42G-A68T-S79Y Fab (Fab, V domains shown)
VH: EVQLVESGGGLIQPGGSLRLSCAASGFALRMYDMHWVRQTIGKRLEWVSAVGPSGDTYYADSVKGRFTVSRENAKNSLYLQMNSLTAGDTAIYYCVRSDRGVAGLFDSWGQGILVTVSS
VL: DIQMTQSPSSLSASVGDRITITCRASQAFDNYVAWYQQRPGKVPKLLISAASALHAGVPSRFSGSGSGTHFTLTISSLQPEDVATYYCQNYNSAPLTFGGGTKVEIK
B9: mAb114 VH A68T-E72D-S79Y-I113T / VL V43A Fab (Fab, V domains shown)
VH: EVQLVESGGGLIQPGGSLRLSCAASGFALRMYDMHWVRQTIDKRLEWVSAVGPSGDTYYADSVKGRFTVSRDNAKNSLYLQMNSLTAGDTAIYYCVRSDRGVAGLFDSWGQGTLVTVSS
VL: DIQMTQSPSSLSASVGDRITITCRASQAFDNYVAWYQQRPGKAPKLLISAASALHAGVPSRFSGSGSGTHFTLTISSLQPEDVATYYCQNYNSAPLTFGGGTKVEIK
B10: mAb114 VH A68T Fab (Fab, V domains shown)
VH: EVQLVESGGGLIQPGGSLRLSCAASGFALRMYDMHWVRQTIDKRLEWVSAVGPSGDTYYADSVKGRFTVSRENAKNSLSLQMNSLTAGDTAIYYCVRSDRGVAGLFDSWGQGILVTVSS
VL: DIQMTQSPSSLSASVGDRITITCRASQAFDNYVAWYQQRPGKVPKLLISAASALHAGVPSRFSGSGSGTHFTLTISSLQPEDVATYYCQNYNSAPLTFGGGTKVEIK
B11: mAb114 VH D42G Fab (Fab, V domains shown)
VH: EVQLVESGGGLIQPGGSLRLSCAASGFALRMYDMHWVRQTIGKRLEWVSAVGPSGDTYYADSVKGRFAVSRENAKNSLSLQMNSLTAGDTAIYYCVRSDRGVAGLFDSWGQGILVTVSS
VL: DIQMTQSPSSLSASVGDRITITCRASQAFDNYVAWYQQRPGKVPKLLISAASALHAGVPSRFSGSGSGTHFTLTISSLQPEDVATYYCQNYNSAPLTFGGGTKVEIK
B12: mAb114 VH S79Y Fab (Fab, V domains shown)
VH: EVQLVESGGGLIQPGGSLRLSCAASGFALRMYDMHWVRQTIDKRLEWVSAVGPSGDTYYADSVKGRFAVSRENAKNSLYLQMNSLTAGDTAIYYCVRSDRGVAGLFDSWGQGILVTVSS
VL: DIQMTQSPSSLSASVGDRITITCRASQAFDNYVAWYQQRPGKVPKLLISAASALHAGVPSRFSGSGSGTHFTLTISSLQPEDVATYYCQNYNSAPLTFGGGTKVEIK
B13: mAb114 VH I113T Fab (Fab, V domains shown)
VH: EVQLVESGGGLIQPGGSLRLSCAASGFALRMYDMHWVRQTIDKRLEWVSAVGPSGDTYYADSVKGRFAVSRENAKNSLSLQMNSLTAGDTAIYYCVRSDRGVAGLFDSWGQGTLVTVSS
VL: DIQMTQSPSSLSASVGDRITITCRASQAFDNYVAWYQQRPGKVPKLLISAASALHAGVPSRFSGSGSGTHFTLTISSLQPEDVATYYCQNYNSAPLTFGGGTKVEIK
B14: mAb114 VL V43A Fab (Fab, V domains shown)
VH: EVQLVESGGGLIQPGGSLRLSCAASGFALRMYDMHWVRQTIDKRLEWVSAVGPSGDTYYADSVKGRFAVSRENAKNSLSLQMNSLTAGDTAIYYCVRSDRGVAGLFDSWGQGILVTVSS
VL: DIQMTQSPSSLSASVGDRITITCRASQAFDNYVAWYQQRPGKAPKLLISAASALHAGVPSRFSGSGSGTHFTLTISSLQPEDVATYYCQNYNSAPLTFGGGTKVEIK
B15: mAb114 VL S49Y Fab (Fab, V domains shown)
VH: EVQLVESGGGLIQPGGSLRLSCAASGFALRMYDMHWVRQTIDKRLEWVSAVGPSGDTYYADSVKGRFAVSRENAKNSLSLQMNSLTAGDTAIYYCVRSDRGVAGLFDSWGQGILVTVSS
VL: DIQMTQSPSSLSASVGDRITITCRASQAFDNYVAWYQQRPGKVPKLLIYAASALHAGVPSRFSGSGSGTHFTLTISSLQPEDVATYYCQNYNSAPLTFGGGTKVEIK
B16: mAb114 VL H70D Fab (Fab, V domains shown)
VH: EVQLVESGGGLIQPGGSLRLSCAASGFALRMYDMHWVRQTIDKRLEWVSAVGPSGDTYYADSVKGRFAVSRENAKNSLSLQMNSLTAGDTAIYYCVRSDRGVAGLFDSWGQGILVTVSS
VL: DIQMTQSPSSLSASVGDRITITCRASQAFDNYVAWYQQRPGKVPKLLISAASALHAGVPSRFSGSGSGTDFTLTISSLQPEDVATYYCQNYNSAPLTFGGGTKVEIK
B17: mAb114 VH A68T-I113T / VL V43A Fab (Fab, V domains shown)
VH: EVQLVESGGGLIQPGGSLRLSCAASGFALRMYDMHWVRQTIDKRLEWVSAVGPSGDTYYADSVKGRFTVSRENAKNSLSLQMNSLTAGDTAIYYCVRSDRGVAGLFDSWGQGTLVTVSS
VL: DIQMTQSPSSLSASVGDRITITCRASQAFDNYVAWYQQRPGKAPKLLISAASALHAGVPSRFSGSGSGTHFTLTISSLQPEDVATYYCQNYNSAPLTFGGGTKVEIK
B18: mAb114 VL I19V Fab (Fab, V domains shown)
VH: EVQLVESGGGLIQPGGSLRLSCAASGFALRMYDMHWVRQTIDKRLEWVSAVGPSGDTYYADSVKGRFAVSRENAKNSLSLQMNSLTAGDTAIYYCVRSDRGVAGLFDSWGQGILVTVSS
VL: DIQMTQSPSSLSASVGDRVTITCRASQAFDNYVAWYQQRPGKVPKLLISAASALHAGVPSRFSGSGSGTHFTLTISSLQPEDVATYYCQNYNSAPLTFGGGTKVEIK
B19: mAb114 VH I41P Fab (Fab, V domains shown)
VH: EVQLVESGGGLIQPGGSLRLSCAASGFALRMYDMHWVRQTPDKRLEWVSAVGPSGDTYYADSVKGRFAVSRENAKNSLSLQMNSLTAGDTAIYYCVRSDRGVAGLFDSWGQGILVTVSS
VL: DIQMTQSPSSLSASVGDRITITCRASQAFDNYVAWYQQRPGKVPKLLISAASALHAGVPSRFSGSGSGTHFTLTISSLQPEDVATYYCQNYNSAPLTFGGGTKVEIK
B20: mAb114 VH E72D Fab (Fab, V domains shown)
VH: EVQLVESGGGLIQPGGSLRLSCAASGFALRMYDMHWVRQTIDKRLEWVSAVGPSGDTYYADSVKGRFAVSRDNAKNSLSLQMNSLTAGDTAIYYCVRSDRGVAGLFDSWGQGILVTVSS
VL: DIQMTQSPSSLSASVGDRITITCRASQAFDNYVAWYQQRPGKVPKLLISAASALHAGVPSRFSGSGSGTHFTLTISSLQPEDVATYYCQNYNSAPLTFGGGTKVEIK
B21: mAb114 VL F29I Fab (Fab, V domains shown)
VH: EVQLVESGGGLIQPGGSLRLSCAASGFALRMYDMHWVRQTIDKRLEWVSAVGPSGDTYYADSVKGRFAVSRENAKNSLSLQMNSLTAGDTAIYYCVRSDRGVAGLFDSWGQGILVTVSS
VL: DIQMTQSPSSLSASVGDRITITCRASQAIDNYVAWYQQRPGKVPKLLISAASALHAGVPSRFSGSGSGTHFTLTISSLQPEDVATYYCQNYNSAPLTFGGGTKVEIK
B22: mAb114 VH I41P-D42G-A68T-S79Y-I113T Fab (Fab, V domains shown)
VH: EVQLVESGGGLIQPGGSLRLSCAASGFALRMYDMHWVRQTPGKRLEWVSAVGPSGDTYYADSVKGRFTVSRENAKNSLYLQMNSLTAGDTAIYYCVRSDRGVAGLFDSWGQGTLVTVSS
VL: DIQMTQSPSSLSASVGDRITITCRASQAFDNYVAWYQQRPGKVPKLLISAASALHAGVPSRFSGSGSGTHFTLTISSLQPEDVATYYCQNYNSAPLTFGGGTKVEIK

Target: T1, Ebola GP ectodomain (Mayinga, Zaire, 1976) with the mucin-like domain deleted (Zaire ebolavirus (Mayinga, 1976), UniProt Q05320 33-650)

Q: How did the Kd turn out when B1 was run?
A: 0.1 µM

Q: How did the Kd turn out when B2 was run?
A: 80 µM

Q: With B3 as the binder, how does the Kd read?
A: 40 µM

Q: B4 was tested. Which Kd did it give?
A: 0.1 µM

Target: T1, Ebola GP ectodomain (Mayinga, Zaire, …)
Remark: another data set of the same source

Q: How did the Kd turn out when B5 was run?
A: 0.1 nM

Q: How did the Kd turn out when B6 was run?
A: 4 nM

Q: How did the Kd turn out when B7 was run?
A: 0.069 nM

Q: Which Kd does the source give for B8 here?
A: 0.19 nM

Q: B9 was tested. Which Kd did it give?
A: 0.076 nM

Q: With B10 as the binder, how does the Kd read?
A: 0.1 nM

Q: How did the Kd turn out when B11 was run?
A: 0.2 nM

Q: How did the Kd turn out when B12 was run?
A: 0.1 nM

Q: How did the Kd turn out when B13 was run?
A: 0.07 nM

Q: Which Kd does the source give for B14 here?
A: 0.07 nM

Q: B15 was tested. Which Kd did it give?
A: 0.6 nM

Q: For B16, which Kd is on record?
A: 0.3 nM

Q: With B17 as the binder, how does the Kd read?
A: 0.17 nM

Q: B18 was tested. Which Kd did it give?
A: 0.2 nM

Q: How did the Kd turn out when B19 was run?
A: 0.3 nM

Q: B20 was tested. Which Kd did it give?
A: 0.1 nM

Q: For B21, which Kd is on record?
A: 0.5 nM

Q: How did the Kd turn out when B22 was run?
A: 0.19 nM
